{"source": "patent US20210388116A1", "about": "(University of California, published 2021)", "binders": {"B1": {"name": "monoclonal Ab (mAb) AG23 (antibody, mouse IgG1, kappa, V domains shown)", "VH": "EVQLQQSGPELVKPGASVKISCKASGYSFTGYYMNWVRQSPEKNLEWIGEINPYTGGTTYNQKFKARATLTVDKSSSTAYVQLKSLTSEDSAVYFCVSWDYDLDYWGQGTTLTVSS", "VL": "QIVLTQSPAFMSASPGEKVTMTCSASSSVSYMHWYQQKSGTSPKRWIYATSKVASGVPARFSGSGSGTSYSLTISSMEAEDAATYYCLQWSSNPYTFGGGTKLEIKR", "notes": "Murine hybridoma IgG purified over Protein A/G; Used biotinylated in some sandwich ELISAs; also called Clone 23; colony #23"}}, "key": {"[1]": {"molecular_target": "T1, G6A/OxCE reaction product (biotin-GDGDGA peptide subjected to the OxCE modification procedure)", "T1 construct": "Negative control peptide in which the C-terminal Lys is replaced with Ala", "T1 peptide": "Biotin-GDGDGA", "test": "peptide ELISA on streptavidin plates", "description": "Biotinylated short peptides G6A-OH, G6K-OH (non-modified) or G6K-OxCE (modified with OxCE) were immobilized to streptavidin pre-coated plates (Eagle Biosciences, Amherst, N.H.), at 10 μg/mL in PBS, overnight at 4° C. After washing with PBS, AG23 was added at 1 μg/mL in 1% BSA-TBS and incubated at room temperature for 90 min. The remaining ELISA was completed as described above."}, "[2]": {"molecular_target": "T2, copper oxidized LDL (CuOxLDL) (human, UniProt P04114 28-4563, limits assumed, copper-oxidized; enriched in oxidized phospholipid (OxPL); positions not stated)", "T2 construct": "A modified lipoprotein particle (protein plus lipid), prepared as in Gonen et al", "T2 sequence (P04114 28-4563 limits assumed)": "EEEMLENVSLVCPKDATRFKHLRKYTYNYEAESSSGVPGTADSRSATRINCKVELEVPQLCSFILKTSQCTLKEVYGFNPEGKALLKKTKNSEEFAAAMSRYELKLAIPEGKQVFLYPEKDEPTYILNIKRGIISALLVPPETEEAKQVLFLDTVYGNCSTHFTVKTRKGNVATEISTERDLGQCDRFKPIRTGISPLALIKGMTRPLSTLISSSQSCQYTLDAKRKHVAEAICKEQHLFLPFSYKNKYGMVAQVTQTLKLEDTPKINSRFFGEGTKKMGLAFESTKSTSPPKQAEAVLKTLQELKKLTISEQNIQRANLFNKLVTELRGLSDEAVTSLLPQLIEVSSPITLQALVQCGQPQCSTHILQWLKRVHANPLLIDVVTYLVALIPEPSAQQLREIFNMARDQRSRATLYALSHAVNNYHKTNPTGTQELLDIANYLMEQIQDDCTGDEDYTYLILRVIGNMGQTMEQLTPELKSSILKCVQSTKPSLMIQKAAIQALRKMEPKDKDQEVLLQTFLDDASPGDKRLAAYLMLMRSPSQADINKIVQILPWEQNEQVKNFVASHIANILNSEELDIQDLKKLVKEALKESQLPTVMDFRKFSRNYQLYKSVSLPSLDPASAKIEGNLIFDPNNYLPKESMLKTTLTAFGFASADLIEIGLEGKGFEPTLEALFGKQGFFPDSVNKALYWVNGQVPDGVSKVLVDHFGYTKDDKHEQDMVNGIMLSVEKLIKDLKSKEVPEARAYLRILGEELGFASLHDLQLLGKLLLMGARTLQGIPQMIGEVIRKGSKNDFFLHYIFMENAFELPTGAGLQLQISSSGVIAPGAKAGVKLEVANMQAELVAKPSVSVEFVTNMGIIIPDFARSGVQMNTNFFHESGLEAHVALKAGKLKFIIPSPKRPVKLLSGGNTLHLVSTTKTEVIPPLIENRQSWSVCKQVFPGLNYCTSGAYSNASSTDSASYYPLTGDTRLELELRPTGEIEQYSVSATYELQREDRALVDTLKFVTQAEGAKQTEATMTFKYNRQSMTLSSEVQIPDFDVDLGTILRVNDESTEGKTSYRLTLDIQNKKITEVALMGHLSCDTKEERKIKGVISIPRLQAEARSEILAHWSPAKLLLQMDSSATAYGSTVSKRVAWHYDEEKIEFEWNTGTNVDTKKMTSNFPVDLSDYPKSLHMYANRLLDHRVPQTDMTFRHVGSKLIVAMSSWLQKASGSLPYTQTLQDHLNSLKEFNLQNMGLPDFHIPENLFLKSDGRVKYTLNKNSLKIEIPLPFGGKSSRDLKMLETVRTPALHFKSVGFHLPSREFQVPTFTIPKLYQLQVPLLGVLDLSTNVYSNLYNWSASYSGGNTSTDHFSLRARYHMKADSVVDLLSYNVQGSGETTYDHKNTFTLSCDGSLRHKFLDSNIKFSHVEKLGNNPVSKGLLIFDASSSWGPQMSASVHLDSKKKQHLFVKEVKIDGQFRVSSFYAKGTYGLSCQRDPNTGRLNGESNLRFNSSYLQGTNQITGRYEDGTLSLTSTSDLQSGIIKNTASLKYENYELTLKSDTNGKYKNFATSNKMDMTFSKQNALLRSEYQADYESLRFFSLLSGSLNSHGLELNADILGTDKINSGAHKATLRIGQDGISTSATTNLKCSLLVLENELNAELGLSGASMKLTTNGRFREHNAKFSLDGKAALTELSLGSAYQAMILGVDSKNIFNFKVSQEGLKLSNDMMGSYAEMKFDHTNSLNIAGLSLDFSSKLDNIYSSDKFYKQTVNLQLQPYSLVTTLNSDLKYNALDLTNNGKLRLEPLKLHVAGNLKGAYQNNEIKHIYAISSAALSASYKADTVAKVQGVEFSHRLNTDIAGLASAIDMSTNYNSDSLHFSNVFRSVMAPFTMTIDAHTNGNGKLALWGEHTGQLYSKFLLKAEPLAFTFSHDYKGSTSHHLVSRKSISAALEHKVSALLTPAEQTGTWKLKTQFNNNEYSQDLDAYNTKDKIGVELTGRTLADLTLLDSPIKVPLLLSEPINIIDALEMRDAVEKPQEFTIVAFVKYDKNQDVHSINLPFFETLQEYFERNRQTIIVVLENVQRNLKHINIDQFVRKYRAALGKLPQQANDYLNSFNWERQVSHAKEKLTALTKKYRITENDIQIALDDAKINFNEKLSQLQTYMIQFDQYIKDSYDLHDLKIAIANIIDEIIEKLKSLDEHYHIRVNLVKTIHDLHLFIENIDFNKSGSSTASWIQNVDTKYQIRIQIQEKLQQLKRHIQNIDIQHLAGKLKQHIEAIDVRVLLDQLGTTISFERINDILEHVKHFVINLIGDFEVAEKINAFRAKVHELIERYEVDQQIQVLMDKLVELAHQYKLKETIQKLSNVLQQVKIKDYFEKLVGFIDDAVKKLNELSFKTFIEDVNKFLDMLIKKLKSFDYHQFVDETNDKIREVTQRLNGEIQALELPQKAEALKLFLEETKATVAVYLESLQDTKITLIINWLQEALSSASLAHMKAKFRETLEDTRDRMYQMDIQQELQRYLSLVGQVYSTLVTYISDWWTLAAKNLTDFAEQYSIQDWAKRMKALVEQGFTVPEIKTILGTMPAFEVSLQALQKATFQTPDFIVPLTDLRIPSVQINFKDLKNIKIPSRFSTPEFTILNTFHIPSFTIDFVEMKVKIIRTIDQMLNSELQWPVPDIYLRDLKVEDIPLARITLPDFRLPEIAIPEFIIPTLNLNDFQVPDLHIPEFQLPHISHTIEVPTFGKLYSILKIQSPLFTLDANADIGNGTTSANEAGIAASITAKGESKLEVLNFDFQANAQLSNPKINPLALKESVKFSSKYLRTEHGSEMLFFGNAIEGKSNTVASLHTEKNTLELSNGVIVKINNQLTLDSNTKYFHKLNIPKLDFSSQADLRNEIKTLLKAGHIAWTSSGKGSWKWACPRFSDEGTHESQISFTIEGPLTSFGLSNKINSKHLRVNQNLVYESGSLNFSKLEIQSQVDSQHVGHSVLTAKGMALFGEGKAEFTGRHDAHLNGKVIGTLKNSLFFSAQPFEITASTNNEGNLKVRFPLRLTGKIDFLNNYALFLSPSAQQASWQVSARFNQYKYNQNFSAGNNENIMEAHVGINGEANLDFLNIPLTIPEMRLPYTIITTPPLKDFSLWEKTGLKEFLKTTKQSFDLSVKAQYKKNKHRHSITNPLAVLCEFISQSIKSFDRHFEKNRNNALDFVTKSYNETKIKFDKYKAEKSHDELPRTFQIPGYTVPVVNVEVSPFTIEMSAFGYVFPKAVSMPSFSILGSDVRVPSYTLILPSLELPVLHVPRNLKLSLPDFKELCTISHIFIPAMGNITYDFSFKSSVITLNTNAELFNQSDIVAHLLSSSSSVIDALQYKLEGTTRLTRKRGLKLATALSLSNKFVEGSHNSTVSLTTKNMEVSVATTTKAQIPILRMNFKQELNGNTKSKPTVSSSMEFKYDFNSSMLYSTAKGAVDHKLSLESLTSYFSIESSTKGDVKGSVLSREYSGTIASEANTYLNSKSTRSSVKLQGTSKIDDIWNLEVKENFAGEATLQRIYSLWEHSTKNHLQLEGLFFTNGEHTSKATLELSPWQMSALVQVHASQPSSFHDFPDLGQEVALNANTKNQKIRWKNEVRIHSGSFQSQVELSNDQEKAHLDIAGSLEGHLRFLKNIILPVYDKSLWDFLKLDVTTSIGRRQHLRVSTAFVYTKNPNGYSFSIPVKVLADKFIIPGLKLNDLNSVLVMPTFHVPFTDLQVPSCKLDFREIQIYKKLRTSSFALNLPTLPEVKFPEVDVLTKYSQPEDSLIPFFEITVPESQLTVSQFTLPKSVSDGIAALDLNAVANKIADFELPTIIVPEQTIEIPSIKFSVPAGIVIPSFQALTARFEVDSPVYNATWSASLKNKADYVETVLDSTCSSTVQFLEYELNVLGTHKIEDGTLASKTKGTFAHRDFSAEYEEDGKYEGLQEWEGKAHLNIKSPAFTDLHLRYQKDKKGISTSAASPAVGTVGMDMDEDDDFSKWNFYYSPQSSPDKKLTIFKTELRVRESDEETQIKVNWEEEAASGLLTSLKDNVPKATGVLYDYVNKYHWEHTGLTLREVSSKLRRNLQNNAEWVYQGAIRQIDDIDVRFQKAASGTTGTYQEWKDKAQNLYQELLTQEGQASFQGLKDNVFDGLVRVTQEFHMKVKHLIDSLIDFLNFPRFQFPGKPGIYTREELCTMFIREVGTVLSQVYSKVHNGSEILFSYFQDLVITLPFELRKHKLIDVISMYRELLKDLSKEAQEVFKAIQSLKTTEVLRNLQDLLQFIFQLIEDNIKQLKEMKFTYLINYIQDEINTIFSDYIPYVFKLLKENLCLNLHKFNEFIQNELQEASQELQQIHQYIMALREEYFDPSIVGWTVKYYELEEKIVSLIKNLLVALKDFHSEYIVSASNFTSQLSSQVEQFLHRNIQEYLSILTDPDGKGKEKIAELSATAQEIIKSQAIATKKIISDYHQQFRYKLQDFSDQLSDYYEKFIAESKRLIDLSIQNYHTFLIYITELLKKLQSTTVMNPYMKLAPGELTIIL", "test": "chemiluminescent ELISA on plated antigen", "description": "Representative gel and blots from 20 repeats. (B) Representative results of AG23 (0.125 μg/mL) binding to BSA, OxCE-BSA, MDA-LDL and CuOxLDL (5 μg/mL). Four different OxCE-BSA preparations were tested in 12 independent experiments, with AG23 concentrations ranging from […]. […] Mean±SD; one-way ANOVA with multiple comparisons; ****, P<0.0001. (C) Competition ELISA: AG23 (0.01 μg/mL) was preincubated in the absence or presence of increasing concentrations of non-modified KLH or OxCE-KLH. Immune complexes were spun down, and supernatants were tested for binding to OxCE-BSA (5 μg/mL). Each data point is the mean of two independent assays in technical triplicates. (D) AG23 (1 μg/mL) binding to 10 μg/mL of non-modified G6K-OH and G6A-OH peptides, and the peptides subjected to the OxCE covalent modification. […] Mean±SD; n=6 for G6K and n=2 for G6A, each in technical duplicates; one-way ANOVA with multiple comparisons; **, P<0.01. (E-F) AG23 (0.15 μg/mL) was preincubated overnight with non-modified (250 μg/mL) or OxCE-modified (10-250 μg/mL) BSA or GDGDGK-OH peptide. […] After washes, AG23 binding to the wells was measured. […]\nMonoclonal antibody binding to an array of epitopes was measured by chemiluminescent ELISA as described in Gonen et al. In brief, wells were coated with antigens at 5 μg/mL in PBS overnight at 4° C. […]"}}, "note": "Where no end group is shown, it is not given here. The star is where a group is joined. Biotin = O=C1N[C@H]2[C@H](CS[C@H]2CCCCC(=O)*)N1", "data": [{"binder": "B1", "values": [{"measurement": "binding result", "setting": "[1]", "result": "no binding (tested: AG23 1 µg/mL; peptide 10 µg/mL)"}, {"measurement": "binding result", "setting": "[2]", "result": "no binding (tested: AG23 0.125 µg/mL; antigen 5 µg/mL)"}]}]}
